# Source: the DeepSol protein solubility set
# Experiment: soluble on expression in E. coli; label from the status in PepcDB or PDB records
row,Sequence,soluble on expression in E. coli
1,MSVWLLQMKTNAIITDITKSIVKMDRILVYRHTNPDPDAIGAQFGLVALLKAAYPEKLVVAMAPVPGHLAWIDTTDEQLVTPQATDLVIAVDCANHERLAGELPTGAFVIKIDHHPNHDPYGQLNWVDETYSSCSEMIYELAQAGCFTVTAAVATKLYAGIIGDTVRFSTPETSTRTLKIASALAATDIDIATISHHEMDLTPALSKLYGYVLSEQTIEPSGLAHVVLPQRIFSDLSLEYGDEDALVPLPGNLTTVKVWLFFIETPQGQYRVHFRSKAINVNAVAKAFNGGGHPLASGAFVPDLATVGQVIEQMQAQVLAATAVDLEHHHHHH,not soluble
2,MSWKHIKIPNGDTMIFCNSFITRKSSMNIVVTHTPIVTTLEMQKAYEPLAKHNVNIFAFDFSGTGKSDGYEKDFSRNSIVKDLDSVITYIEKNYSSNIHLYGNTGIGGMFAQYYACSDNKLKSFAQFACVDYKNTTGVGYTYLTVKLLNFFFKFLPNFHITVKPPKYKGYNEVYDNEFYKIFEKKNPHIWKNSTKIINTMLECFIAKDSKIKDGVNIPTLVFKTLHDRYFKTQYFDSYYNSLKCKKKLVEINNVHNSYYIDSEKFCQEAYDWFVENQ,not soluble
3,MTAEHSWRLCLMALAFEDQLAGLDLGKVLRMCVVHDLGEAIHGDIPAVEQAAHPDKGEQERADLLQLTRHLDAPLRDRLLALWDEYERGESAEALAVKALDKLETL,soluble
4,MTAENLSLSPELLDAVRRISGTEHLLVALDFDGTLSPIVDRAEDARPLPRSAAALEALAQLPRTTTALISGRALDSLRLVASPPADTLLIGSHGAEVWLGEGSLGLELDEDQRLKLAAVREVLSEIVNIAPGTLLEDKPAGVVLHTRMADDDVADDAVEAAMRVLREHPGVYLKTGKRVLETSVVHASKGQAVEFLRQATGATAILFAGDDVTDEDALGRLMGDDVGIKVGLDFTQAQYRVEAPVHVAELLEALLRERRRVTTDA,soluble
5,MTAPISLRLVVEARDLPPMLPDVLRERFDRGETGVAWAPEHDASVGAPLGVLGGPEATAWPFAISEPPPVNVPALCAVGPCWWYPSFGAVIGNDGALYNATVGEARHGSADLSAIPGVASGGTRLVPPQDAPVLDGGAVFMPWGAGFNYGHFVIDALPSILALEQAGLLHDTPLLAPRLTDWQRELIAMATPGVRLQEVDAPAVRLGRAVFATSMDHFLHHPNGLLATLAERVTANAPKGAGARRVYLSRRGQSMRVMVGEAAFERALQARGFVIVRPETLGARAQVALMRDAEIIVGASGAALANAVFLPRGARVIEIQPTNFTSQWVRAACRQVGVEWRGYVCASPCPAHAAPLLARLRRGFKFAFRPDLDDLLSFVDAALLEHHHHHH,not soluble
6,MTARIYKPAKNAMQSGTAKTREWQLDYEPETPRTIEPLMGWTSSSDMQQQVSLRFHTRDEAVAYCEREGIPYQLIEPKEPVRRRAAYADNFAFRRPEPWTH,soluble
7,MTASDSAADETGDLRHEAHAWVISLTSGRVTQGDARAFRQWCARSPQHLRAFVEARDLWQALGSAAALPLEPPAVAQIAPRRFGRRWFVGGALAASVALFVLRPSLLDHGLGGADYVTAVGEQRQVQVSGETRIEMNTRTRLNVRRNQEQQETIELLGGEAEIIASHPPQSSLRVMAGSAWLSASRARFNVRSSGDVCVVTCLEGSVRLEHLGQRLDLQAGQQLTFDERRNGPPVPFDVAEVMAWRERMLVFNDVPLATVIDEINRYRPGMLLLLDKALGRRRVQARFSLDQLADVATLIRDAYGIEVTRLPGGVVLLG,not soluble
8,MTAVKHTTESTFAKLGVRDEIVRALGEEGIKRPFAIQELTLPLALDGEDVIGQARTGMGKTFAFGVPLLQRITSGDGTRPLTGAPRALVVVPTRELCLQVTDDLATAGKYLTAGPDTDDAAAVRRRLSVVSIYGGRPYEPQIEALRAGADVVVGTPGRLLDLCQQGHLQLGGLSVLVLDEADEMLDLGFLPDIERILRQIPADRQSMLFSATMPDPIITLARTFMVRPTHIRAEAPHSSAVHDATEQFVYRAHALDKVELVSRVLQARDRGATMIFTRTKRTAQKVADELTERGFAVGAVHGDLGQLAREKALKAFRTGGIDVLVATDVAARGIDIDDVTHVINYQCPEDEKMYVHRIGRTGRAGRTGVAVTLVDWDELPRWSMIDQALGLGSPDPAETYSNSPHLYAELAIPATAGGTVGPARKSQGRRRDTDCDGQKTAQHARNTPRRRRTRGGKPVTGHPGTNPISSPIVGGDATSEPGSGTASDSGSDVVSGSRSGNGEAARRRRRRRRRPTHAQDGFAARAN,soluble
